Changes are numbered by the printed parent chain.
B1: proMdMYB10 W2 (dsDNA)
DNA 1: TGATAAAGGTATCTTATGGTGGTCAAAGATGTGTGTTGTAACTAGT
DNA 2: ACTAGTTACAACACACATCTTTGACCACCATAAGATACCTTTATCA
B2: proMdMYB10 W2 mutant (dsDNA)
DNA 1: B1 DNA 1 with T23G, C24A
DNA 2: B1 DNA 2 with G23T, A24C
B3: proMdUFGT W5 (dsDNA)
DNA 1: TTTTTTGCAACAAATTACCTTTGACTAACAAAACAAGGATATTTCT
DNA 2: AGAAATATCCTTGTTTTGTTAGTCAAAGGTAATTTGTTGCAAAAAA
B4: proMdUFGT W5 mutant (dsDNA)
DNA 1: B3 DNA 1 with G23T, A24C
DNA 2: B3 DNA 2 with T23G, C24A
B5: proMdF3'5'H W2 (dsDNA)
DNA 1: TAAATAGTATCTAACGAAAATTGACCGCACGATATACAATGAACGA
DNA 2: TCGTTCATTGTATATCGTGCGGTCAATTTTCGTTAGATACTATTTA
B6: proMdF3'5'H W2 mutant (dsDNA)
DNA 1: B5 DNA 1 with G23T, A24C
DNA 2: B5 DNA 2 with T23G, C24A
B7: proMdF3'5'H W3 (dsDNA)
DNA 1: TCACTCATATAGGTAAACTTTGTCAAGGATGTTCATGTAATTATAA
DNA 2: TTATAATTACATGAACATCCTTGACAAAGTTTACCTATATGAGTGA
B8: proMdF3'5'H W3 mutant (dsDNA)
DNA 1: B7 DNA 1 with T23G, C24A
DNA 2: B7 DNA 2 with G23T, A24C

The binders below were run against MdWRKY10 (Malus domestica, UniProt D9ZJE9 1-528) (assay: EMSA; EMSA with LightShift chemiluminescent kit (Thermo) per manufacturer; buffer, pH and temperature not stated). Conditions: protein: recombinant; tags: His (pET-32a(+) vector); label: 3' biotin; blunt.
Chain of MdWRKY10 (D9ZJE9 entry or part of it): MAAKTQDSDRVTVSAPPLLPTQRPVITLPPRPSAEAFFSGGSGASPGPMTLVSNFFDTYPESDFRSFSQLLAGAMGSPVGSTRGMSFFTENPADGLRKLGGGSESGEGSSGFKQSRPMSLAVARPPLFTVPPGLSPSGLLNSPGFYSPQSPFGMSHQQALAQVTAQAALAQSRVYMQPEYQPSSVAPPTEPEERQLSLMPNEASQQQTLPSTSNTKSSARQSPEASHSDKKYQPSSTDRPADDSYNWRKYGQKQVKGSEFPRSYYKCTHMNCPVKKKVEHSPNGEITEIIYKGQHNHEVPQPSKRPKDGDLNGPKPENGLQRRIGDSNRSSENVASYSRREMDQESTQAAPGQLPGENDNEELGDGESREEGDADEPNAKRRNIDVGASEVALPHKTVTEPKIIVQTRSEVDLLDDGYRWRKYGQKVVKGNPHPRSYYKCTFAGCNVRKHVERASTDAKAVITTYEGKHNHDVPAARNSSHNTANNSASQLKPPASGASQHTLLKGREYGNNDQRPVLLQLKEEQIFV

Row | Binder | binding result
1 | B1 | binds
2 | B2 | no binding
3 | B3 | binds
4 | B4 | no binding
5 | B5 | binds
6 | B6 | no binding
7 | B7 | binds
8 | B8 | no binding
